Experimental findings from doi:10.1101/2020.03.22.001966 are described below.

Common to all, as to test: SEC
Experiment [1] has as its target Acinetobacter baumannii BigR (Acinetobacter baumannii).
Experiment [2] deals with C9S/C107S SqrR (Rhodobacter capsulatus).
The target in experiment [3] is C9S/C41S SqrR (Rhodobacter capsulatus).
For experiment [4], the target named is C9S SqrR, reduced (Rhodobacter capsulatus).
For experiment [5], the target named is wild-type SqrR (sulfide quinone reductase repressor), reduced (Rhodobacter capsulatus).

Broadly, the stoichiometry N is the number of molecules, sites or subunits per partner or assembly. “Acinetobacter baumannii BigR (natural protein)” came in with a stoichiometry N in experiment [1] of 2.
The substance C9S/C107S SqrR (natural protein) showed a stoichiometry N in experiment [2] of 2.
Substance C9S/C41S SqrR (natural protein) came in with a stoichiometry N in experiment [3] of 2.
C9S SqrR, reduced (natural protein) displayed a stoichiometry N in experiment [4] of 2.
In experiment [5], “wild-type SqrR (sulfide quinone reductase repressor), reduced (natural protein)” yielded a stoichiometry N of 2.
